Test results reported in patent US11572572B2, “A138T mutation-containing plant EPSPS mutant, and encoding gene and application thereof” (GEVOTO LLC, priority 2017, dated 2023).

Key:
[1] = tested on: transgenic rice seedlings; assay: Glyphosate resistance of EPSPS mutants in transgenic rice sprayed with glyphosate (Example 8); type: in vivo, rice (Nipponbare); conditions: for glyphosate resistance of transformed rice seedlings (in words): after spraying with 1× glyphosate
Source text: The glyphosate resistance of the EPSPS mutants of the above examples in transgenic rice was detected by the following method.
Plasmids of monoclonal resistant strain comprising pADV5-EPSPS of Examples 1-4 (containing the EPSPS mutant genes) were extracted in accordance with a conventional method. They were subjected to double enzymatic digestion with Pacl and BstEII to recover small fragments, and then the small fragments were ligated, using T4 DNA ligase, to a pGVP1 vector subjected to double enzymatic digestion in the same manner, to obtain a pGVP1-EPSPS vector having a structure as shown in FIG. 8.
The pGVP1-EPSPS vector was transformed into EHA105 (Agrobacterium tumefaciens) competent cells, and single clones were picked out for colony PCR detection to obtain positive strains. Then, the positive strains were inoculated into and propagated in 1 mL of a YEP medium containing 50 μg·mL^−1 kanamycin and 50 μg·mL^−1 rifampicin, and stored at −80° C. or used in subsequent experiments.
400 ul of a strain containing the target gene vector stored at −80° C. was added to a culture dish with a solid medium containing YEP+50 μg/mL rifampicin+50 μg/mL kanamycin and cultured in the dark at 28° C. for 24 hours, and then the bacterium was added to an infection medium and adjusted to OD=0.2 as an infection solution.
Disinfection and Pre-culture: seeds of mature rice (Nipponbare) were manually dehulled. Full seeds with no bacterial plaques were selected and disinfected in accordance with the following steps: the seeds were placed in a 50 ml sterile centrifuge tube and disinfected with the added 70% ethanol in water for 30 seconds, ethanol solution was poured out, and the seeds were washed once with sterile water; 10 to 20 ml of 2.6% sodium hypochlorite solution was added to soak and disinfect the seeds for 20 minutes. The sodium hypochlorite solution was poured out, and the seeds were soaked and washed with sterile water for 6 or 7 times, for 3 minutes each time.
Induction and Subculture: the seeds were placed on and blotted with sterile filter paper, and the mature embryos were placed in an induction medium, with 12 embryos per dish. After the operation was completed, the culture dishes were sealed with parafilm and underwent culturing in the dark at 30° C. for 21 to 28 days. Callus tissue was transferred to a fresh medium and continued to be cultured for about 7 to 14 days. Spherical callus tissue with a dimension of 1 to 2 mm was taken as an infection receptor.
The callus tissue was placed into a centrifuge tube or culture cup, infected in the prepared Agrobacterium suspension added thereto for 10 minutes, and shaken several times during the period; the bacterial solution was poured out, the callus tissue was taken out and placed on sterile filter paper for absorbing the bacterial solution from its surface (for about 30 minutes); the callus tissue was placed on sterile filter paper in culture dishes and cultured in the dark at 25° C. for 2 or 3 days.
Recovery Culture: the co-cultured callus tissue was inoculated on a recovery medium and cultured in the dark at 30° C. for 5 to 7 days.
Primary Screening: the callus was transferred to screening medium 1 (51) and cultured in the dark at 30° C. for 14 days.
Secondary Screening: the callus was then transferred to screening medium 2 (S2) and cultured in the dark at 30° C. for 14 days.
Primary Differentiation: the screened resistant callus tissue was transferred to a differentiation medium and cultured for about 21 days at 30° C. under exposure to light for 19 hours.
Secondary Differentiation: new young shoots were selected and moved to a fresh differentiation medium and continued to be cultured for about 21 days.
When the new seedlings grew to about 2 cm, they were moved to a rooting medium and cultured for 3 to 4 weeks at 30° C. under exposure to light (for 16/8 h). […]

[2] = tested on: double-knockout Escherichia coli strain (EDCE); assay: Growth of double-knockout E. coli (EDCE) transformed with Oryza sativa EPSPS genes in glyphosate media (Example 5); type: cell-based; conditions: Example 5, FIG. 1
Source text: An Escherichia coli strain transformed with the Oryza sativa EPSPS mutant I-encoding gene according to Example 1 was used as Experimental Group 1 (having only the A155(138)T mutation).
An Escherichia coli strain transformed with the Oryza sativa EPSPS mutant II-encoding gene according to Example 2 was used as Experimental Group 3 (having the G111(96)A mutation and A155(138)T mutation).
An Escherichia coli strain transformed with a wild-type Oryza sativa EPSPS-encoding gene (SEQ ID NO: 14, encoding wild-type Oryza sativa EPSPS set forth in SEQ ID NO: 5) was used as a control group.
The glyphosate resistance of the Oryza sativa EPSPS mutant I-encoding gene and the encoded Oryza sativa EPSPS mutant I in Escherichia coli, and the glyphosate resistance of the Oryza sativa EPSPS mutant II-encoding gene and the encoded Oryza sativa EPSPS mutant II in Escherichia coli were verified by detecting the growth statuses of the transformed Escherichia coli in media containing different concentrations of glyphosate (0 mM, 1 mM, 2 mM, 20 mM) (media obtained by using M9 as a basal medium and then adding certain concentrations of antibiotics Spec (Spectinomycin), Gen (Gentamycin), and Amp (Ampicillin) and different concentrations of glyphosate).
Here, the Escherichia coli strain used was an double-knockout Escherichia coli strain (Escherichia coli strain DH5a from which an EPSPS gene and a C-P Lyase gene were knocked out, named EDCE, which may be prepared by a method with reference to Chinese Patent Application No. 2016103256926).
The detection was carried out by a method well known in the art, which was briefly described below. Gene encoding Oryza sativa EPSPS mutants was synthesized by a chemical synthesis method, wherein enzymatic digestion sites (Pacl and Sbfl) were introduced at both ends of the gene. The gene were enzymatically cleaved and then ligated in the presence of ligase to an expression vector (e.g., pADV5 vector having a structure as shown in FIG. 4) subjected to the same enzymatic digestion treatment, and then were transformed into the double-knockout Escherichia coli strain. After verification, positive clones were picked out and inoculated and grown in media containing glyphosate. The growth statuses were observed.

[3] = 1X dose glyphosate (1,060 g/ha), day 10 after spraying
[4] = 2X dose glyphosate (2,120 g/ha) on survivors of 1X, after another 10 days
[5] = 5X dose glyphosate (5,300 g/ha) on survivors of 2X, after additional 10 days
[6] = 20X dose glyphosate (21,200 g/ha) on survivors of 5X, after further 10 days
[7] = medium containing 1 mM glyphosate
[8] = medium containing 2 mM glyphosate
[9] = medium containing 20 mM glyphosate

Row | Molecule | % ++&+++ (percentage of moderately and highly glyphosate resistant plants in total plants observed) [1, 3] | plant number with resistance + (low glyphosate resistant) [1, 3] | plant number with resistance ++ (moderately glyphosate resistant) [1, 3] | plant number with resistance +++ (highly glyphosate resistant) [1, 3] | % ++&+++ (percentage of moderately and highly glyphosate resistant plants in total plants observed) [1, 4] | plant number with resistance + (low glyphosate resistant) [1, 4] | plant number with resistance ++ (moderately glyphosate resistant) [1, 4] | plant number with resistance +++ (highly glyphosate resistant) [1, 4] | plant number with resistance − (non-glyphosate resistant, withered or dead) [1, 4] | % ++&+++ (percentage of moderately and highly glyphosate resistant plants in total plants observed) [1, 5] | plant number with resistance + (low glyphosate resistant) [1, 5] | plant number with resistance ++ (moderately glyphosate resistant) [1, 5] | plant number with resistance +++ (highly glyphosate resistant) [1, 5] | plant number with resistance − (non-glyphosate resistant, withered or dead) [1, 5] | % ++&+++ (percentage of moderately and highly glyphosate resistant plants in total plants observed) [1, 6] | plant number with resistance + (low glyphosate resistant) [1, 6] | plant number with resistance ++ (moderately glyphosate resistant) [1, 6] | plant number with resistance +++ (highly glyphosate resistant) [1, 6] | plant number with resistance − (non-glyphosate resistant, withered or dead) [1, 6] | glyphosate resistance of transformed rice seedlings (in words) [1] | also measured
1 | R0: wild-type Oryza sativa EPSPS (SEQ ID NO: 5), encoding gene SEQ ID NO: 14; control group of Example 5 (protein, listed as Oryza sativa) MASNAAAAAAKAEEIVLQPIREISGAVQLPGSKSLSNRILLLSALSEGTTVVDNLLNSEDVHYMLEALKALGLSVEADKVAKRAVVVGCGGKFPVEKDAKEEVQLFLGNAGTAMRPLTAAVTAAGGNATYVLDGVPRMRERPIGDLVVGLKQLGADVDCFLGTECPPVRVKGIGGLPGGKVKLSGSISSQYLSALLMAAPLALGDVEIEIIDKLISIPYVEMTLRLMERFGVKAEHSDSWDRFYIKGGQKYKSPGNAYVEGDASSASYFLAGAAITGGTVTVQGCGTTSLQGDVKFAEVLEMMGAKVTWTDTSVTVTGPPREPYGKKHLKAVDVNMNKMPDVAMTLAVVALFADGPTAIRDVASWRVKETERMVAIRTELTKLGASVEEGPDYCIITPPEKLNITAIDTYDDHRMAMAFSLAACADVPVTIRDPGCTRKTFPNYFDVLSTFVRN | 0.0% | 1 | 0 | 0 | 0.0% | 0 | 0 | 0 | 31 | 0.0% | 0 | 0 | 0 | 31 | 0.0% | 0 | 0 | 0 | 31 | all had no resistance | growth status of transformed Escherichia coli ([2]; medium containing 0 mM glyphosate): could grow; growth status of transformed Escherichia coli [2, 7]: could not grow; growth status of transformed Escherichia coli [2, 8]: could not grow; growth status of transformed Escherichia coli [2, 9]: could not grow
2 | R1: Oryza sativa EPSPS mutant I with A155(138)T mutation (SEQ ID NO: 6), encoding gene SEQ ID NO: 15 (protein, Oryza sativa EPSPS mutant with mutation A155(138)T) MASNAAAAAAKAEEIVLQPIREISGAVQLPGSKSLSNRILLLSALSEGTTVVDNLLNSEDVHYMLEALKALGLSVEADKVAKRAVVVGCGGKFPVEKDAKEEVQLFLGNAGTAMRPLTAAVTAAGGNATYVLDGVPRMRERPIGDLVVGLKQLGTDVDCFLGTECPPVRVKGIGGLPGGKVKLSGSISSQYLSALLMAAPLALGDVEIEIIDKLISIPYVEMTLRLMERFGVKAEHSDSWDRFYIKGGQKYKSPGNAYVEGDASSASYFLAGAAITGGTVTVQGCGTTSLQGDVKFAEVLEMMGAKVTWTDTSVTVTGPPREPYGKKHLKAVDVNMNKMPDVAMTLAVVALFADGPTAIRDVASWRVKETERMVAIRTELTKLGASVEEGPDYCIITPPEKLNITAIDTYDDHRMAMAFSLAACADVPVTIRDPGCTRKTFPNYFDVLSTFVRN | 58.1% | 8 | 7 | 11 | 0.0% | 5 | 0 | 0 | 26 | 0.0% | 1 | 0 | 0 | 30 | 0.0% | 0 | 0 | 0 | 31 | significantly better glyphosate resistance than that of R0 | survival of transformed rice seedlings (in words) ([1]; 2× and 5× glyphosate doses): all of them survived; growth status of transformed Escherichia coli [2, 7]: showed bacterial plaques; growth status of transformed Escherichia coli [2, 8]: could not grow; growth status of transformed Escherichia coli [2, 9]: could not grow
